Measurements taken from publication PMC4038516, “Crystal Structure of Penicillin-Binding Protein 3 (PBP3) from Escherichia coli” (PLoS ONE, 2014).

B1: PBP3_(88–165), Val88-Ser165 subdomain of Escherichia coli PBP3, strep-tag removed (domain or fragment, UniProt P0AD68 88-165, looked up)
chain: VKAIWADPKEVHDAGGISVGDRWKALANALNIPLDQLSARINANPKGRFIYLARQVNPDMADYIKKLKLPGIHLREES
notes: The tag is said to be removed before crystallization; Residues of the vector may remain at the N-terminus after the tag was removed; A selenomethionine form was used for phasing only; also called PBP3 Val88-Ser165 subdomain; source: E. coli C41(DE3) with pDML2042 (pET-52b(+)), purified (Strep-Tactin column), strep-tag removed; not shown: Strep-tag, N-terminal, cleaved
B2: PBP3_(57–577), soluble periplasmic form of Escherichia coli penicillin-binding protein 3 (domain or fragment, UniProt P0AD68 57-577, looked up)
chain: GDMRSLRVQQVSTSRGMITDRSGRPLAVSVPVKAIWADPKEVHDAGGISVGDRWKALANALNIPLDQLSARINANPKGRFIYLARQVNPDMADYIKKLKLPGIHLREESRRYYPSGEVTAHLIGFTNVDSQGIEGVEKSFDKWLTGQPGERIVRKDRYGRVIEDISSTDSQAAHNLALSIDERLQALVYRELNNAVAFNKAESGSAVLVDVNTGEVLAMANSPSYNPNNLSGTPKEAMRNRTITDVFEPGSTVKPMVVMTALQRGVVRENSVLNTIPYRINGHEIKDVARYSELTLTGVLQKSSNVGVSKLALAMPSSALVDTYSRFGLGKATNLGLVGERSGLYPQKQRWSDIERATFSFGYGLMVTPLQLARVYATIGSYGIYRPLSITKVDPPVPGERVFPESIVRTVVHMMESVALPGGGGVKAAIKGYRIAIKTGTAKKVGPDGRYINKYIAYTAGVAPASQPRFALVVVINDPQAGKYYGGAVSAPVFGAIMGGVLRTMNIEPDALTTGDKNEFV
notes: the ftsI gene encodes 588 residues and 11 C-terminal residues are removed by proteolytic cleavage; No tag is mentioned; also called FtsI; periplasmic domain of PBP3; source: E. coli W3110M (plasmid pDML232, with pDML237 for SecB), purified (S-Sepharose twice, Superdex 200)

Columns and labels:
[1] = biological target: the molecule itself; assay: dynamic light scattering + other: static light scattering; PBP3_(88–165), batch mode, 20°C, buffer and concentration as for crystallogenesis (7.5 mg/ml, 0.15 M NaCl, 0.1 M Tris pH 8, 1 mM EDTA)
[2] = biological target: the molecule itself; assay: dynamic light scattering + other: static light scattering; PBP3_(57–577), batch mode, 20°C, buffer and concentration as for crystallogenesis (18 mg/ml, 0.5 M NaCl, 20 mM Tris pH 8)

| Protein | stoichiometry N [1] | stoichiometry N [2] |
| --- | --- | --- |
| B1 | 2 |  |
| B2 |  | 2 |
